The values below are quoted from earlier work in PMC2975797.

The series deals with von Willebrand factor (Homo sapiens) (UniProt P04275).

Some results are limits rather than exact numbers.

In the case of Factor VIII (from UniProt P00451), the Kd was under 0.5 nM.
